Experiments:
[1] = target: T1, ROR1 ICD (Homo sapiens, UniProt Q01973, C482G); experiment: [gamma-32P]ATP phosphocellulose paper binding assay, initial rates; type: biochemical; conditions: 20 mM Mg2+ or 5 mM Mn2+; 5 mM activation loop peptide; 20 °C; limit of assay
T1 sequence (Q01973 428-937 C482G): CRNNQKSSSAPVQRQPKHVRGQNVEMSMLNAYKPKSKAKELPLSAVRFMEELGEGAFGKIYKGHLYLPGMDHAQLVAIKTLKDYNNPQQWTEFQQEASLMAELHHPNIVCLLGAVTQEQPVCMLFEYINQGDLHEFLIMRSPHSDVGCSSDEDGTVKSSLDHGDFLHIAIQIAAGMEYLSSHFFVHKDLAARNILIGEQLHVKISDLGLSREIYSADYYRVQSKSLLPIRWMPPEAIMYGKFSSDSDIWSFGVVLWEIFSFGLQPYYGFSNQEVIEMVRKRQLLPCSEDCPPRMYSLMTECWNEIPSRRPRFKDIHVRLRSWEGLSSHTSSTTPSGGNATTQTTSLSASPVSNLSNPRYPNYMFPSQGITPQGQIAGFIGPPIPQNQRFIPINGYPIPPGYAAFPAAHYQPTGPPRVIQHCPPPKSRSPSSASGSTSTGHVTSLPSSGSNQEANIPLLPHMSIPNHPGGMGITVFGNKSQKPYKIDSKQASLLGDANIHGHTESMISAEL
Description: (§1) [gamma-32P]ATP phosphocellulose paper binding assay, initial rates on ROR1 ICD

[2] = target: T2, ROR1 ICD (Homo sapiens, UniProt Q01973); experiment: as above; type: biochemical; conditions: 20 mM Mg2+ or 5 mM Mn2+; 5 mM activation loop peptide; 20 °C; limit of assay
T2 sequence (Q01973 428-937): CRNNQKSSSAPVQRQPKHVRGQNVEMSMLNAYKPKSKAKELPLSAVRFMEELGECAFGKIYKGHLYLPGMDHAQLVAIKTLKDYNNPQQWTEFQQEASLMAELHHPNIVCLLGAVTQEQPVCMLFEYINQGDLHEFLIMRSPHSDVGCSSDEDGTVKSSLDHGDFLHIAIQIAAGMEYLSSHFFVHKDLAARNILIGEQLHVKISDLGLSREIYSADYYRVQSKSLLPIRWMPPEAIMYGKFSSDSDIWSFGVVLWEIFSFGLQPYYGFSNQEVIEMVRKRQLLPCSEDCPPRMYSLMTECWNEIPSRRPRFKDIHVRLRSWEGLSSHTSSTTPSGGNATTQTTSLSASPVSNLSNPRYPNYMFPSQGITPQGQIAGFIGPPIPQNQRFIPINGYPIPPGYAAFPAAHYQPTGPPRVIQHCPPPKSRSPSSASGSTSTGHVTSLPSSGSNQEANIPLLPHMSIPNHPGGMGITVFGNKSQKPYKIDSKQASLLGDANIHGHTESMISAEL
Description: as §1

[3] = target: T3, MuSK ICD (Homo sapiens, UniProt O15146); experiment: autophosphorylation, anti-phosphotyrosine immunoblot; type: biochemical; conditions: 2 mM ATP, 20 mM MgCl2, 0.2 mM orthovanadate, about 18 h at 4 °C
T3 sequence (O15146 519-869): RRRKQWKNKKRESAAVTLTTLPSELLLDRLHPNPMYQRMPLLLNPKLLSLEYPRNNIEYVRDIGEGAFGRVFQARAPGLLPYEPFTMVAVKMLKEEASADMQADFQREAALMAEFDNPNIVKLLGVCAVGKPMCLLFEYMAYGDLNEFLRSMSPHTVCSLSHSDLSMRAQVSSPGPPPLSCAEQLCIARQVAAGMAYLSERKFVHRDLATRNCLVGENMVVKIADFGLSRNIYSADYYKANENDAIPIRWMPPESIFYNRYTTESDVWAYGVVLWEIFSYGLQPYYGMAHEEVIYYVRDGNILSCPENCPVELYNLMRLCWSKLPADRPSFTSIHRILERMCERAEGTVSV

[4] = substrate: Nc1ncnc2c1ncn2[C@@H]1O[C@H](COP(=O)(O)OP(=O)(O)OP(=O)(O)O)[C@@H](O)[C@H]1O; experiment: [gamma-32P]ATP phosphocellulose paper binding assay, initial rates; type: biochemical, Caenorhabditis elegans; conditions: 5 mM activation loop peptide, 20 °C
Description: [gamma-32P]ATP phosphocellulose paper binding assay, initial rates on CAM-1 ICD

[5] = substrate: Nc1ncnc2c1ncn2[C@@H]1O[C@H](COP(=O)(O)OP(=O)(O)OP(=O)(O)O)[C@@H](O)[C@H]1O; experiment: as above; type: biochemical, Homo sapiens; conditions: 20 mM Mg2+ or 5 mM Mn2+, 5 mM activation loop peptide, 20 °C, limit of assay
Description: [gamma-32P]ATP phosphocellulose paper binding assay, initial rates on ROR2 ICD

[6] = 20 mM Mg2+ or 5 mM Mn2+, limit of assay
[7] = phosphorylated enzyme (pre-incubated with ATP/Mg2+) 10 µM, 20 mM Mg2+
[8] = unphosphorylated enzyme 10 µM, 20 mM Mg2+

Nc1ncnc2c1ncn2[C@@H]1O[C@H](COP(=O)(O)OP(=O)(O)OP(=O)(O)O)[C@@H](O)[C@H]1O [ATP]
Km [1]: > 15 mM | Km [2]: > 15 mM | autophosphorylation, anti-phosphotyrosine immunoblot [3]: ICDs of receptors ROR1, ROR2, CAM-1 and MuSK were incubated overnight

B1: CAM-1 ICD (Caenorhabditis elegans; K624R) (protein)
chain: RAKKKSQKTRHQNAHCSSAPSVINSAANSAYYRKLNGTSTPIMGRVPPHVEMTSLLPSAQHLGPPPYPMDQHLQQARRFPSQEPIDDNSYKVFEITPSQLSVREKIGEGQFGVVHSGIYTSGLFAPEPMAVAVRKCRHDATNAERAQLEQEIRAVATFDHPNVIKLIGVCYMDNSLLAVFEYMVHGDLHELLKVRVPPADHDMGGITEANAEFLYIATQIALGMEYLASMSFVHRDLATRNCLVGDTRTIKIADFGLMRTSYGSDYYKMLHRSWMPVRWMSKEAIEQGRFSEASDVWSFGVTLWEIWSFGRQPYEGASNQQVIELVANRHLLECPHNCPTNIYSLMVECWHENIERRPTFSEIRSRLQSWSLASPAHSILQQHNNRAGSHSGSSGAGRPPTHQRGYPSQKLHRRVEGASPLMKRHDANYAYSEDGDSD
Km ([4]; 20 mM Mg2+): 6.69 ± 1.12 mM | kcat ([4]; 20 mM Mg2+): 0.00333 ± 0.00033 s⁻¹ | kcat/Km ([4]; 20 mM Mg2+): 0.5 M⁻¹ s⁻¹

B2: CAM-1 ICD (Caenorhabditis elegans; G599C) (protein)
chain: RAKKKSQKTRHQNAHCSSAPSVINSAANSAYYRKLNGTSTPIMGRVPPHVEMTSLLPSAQHLGPPPYPMDQHLQQARRFPSQEPIDDNSYKVFEITPSQLSVREKIGECQFGVVHSGIYTSGLFAPEPMAVAVKKCRHDATNAERAQLEQEIRAVATFDHPNVIKLIGVCYMDNSLLAVFEYMVHGDLHELLKVRVPPADHDMGGITEANAEFLYIATQIALGMEYLASMSFVHRDLATRNCLVGDTRTIKIADFGLMRTSYGSDYYKMLHRSWMPVRWMSKEAIEQGRFSEASDVWSFGVTLWEIWSFGRQPYEGASNQQVIELVANRHLLECPHNCPTNIYSLMVECWHENIERRPTFSEIRSRLQSWSLASPAHSILQQHNNRAGSHSGSSGAGRPPTHQRGYPSQKLHRRVEGASPLMKRHDANYAYSEDGDSD
kcat [4, 6]: <8.3e-06 s⁻¹ | kcat/Km [4, 6]: < 0.0005 M⁻¹ s⁻¹

B3: CAM-1 ICD (Caenorhabditis elegans) (protein)
chain: RAKKKSQKTRHQNAHCSSAPSVINSAANSAYYRKLNGTSTPIMGRVPPHVEMTSLLPSAQHLGPPPYPMDQHLQQARRFPSQEPIDDNSYKVFEITPSQLSVREKIGEGQFGVVHSGIYTSGLFAPEPMAVAVKKCRHDATNAERAQLEQEIRAVATFDHPNVIKLIGVCYMDNSLLAVFEYMVHGDLHELLKVRVPPADHDMGGITEANAEFLYIATQIALGMEYLASMSFVHRDLATRNCLVGDTRTIKIADFGLMRTSYGSDYYKMLHRSWMPVRWMSKEAIEQGRFSEASDVWSFGVTLWEIWSFGRQPYEGASNQQVIELVANRHLLECPHNCPTNIYSLMVECWHENIERRPTFSEIRSRLQSWSLASPAHSILQQHNNRAGSHSGSSGAGRPPTHQRGYPSQKLHRRVEGASPLMKRHDANYAYSEDGDSD
Km [4, 7]: 3.35 ± 0.57 mM | kcat [4, 7]: 0.0422 ± 0.003 s⁻¹ | kcat/Km [4, 7]: 12.7 M⁻¹ s⁻¹ | Km [4, 8]: 3.53 ± 0.34 mM | kcat [4, 8]: 0.0438 ± 0.00183 s⁻¹ | kcat/Km [4, 8]: 12.5 M⁻¹ s⁻¹

B4: CAM-1 ICD (Caenorhabditis elegans; D744N) (protein)
chain: RAKKKSQKTRHQNAHCSSAPSVINSAANSAYYRKLNGTSTPIMGRVPPHVEMTSLLPSAQHLGPPPYPMDQHLQQARRFPSQEPIDDNSYKVFEITPSQLSVREKIGEGQFGVVHSGIYTSGLFAPEPMAVAVKKCRHDATNAERAQLEQEIRAVATFDHPNVIKLIGVCYMDNSLLAVFEYMVHGDLHELLKVRVPPADHDMGGITEANAEFLYIATQIALGMEYLASMSFVHRDLATRNCLVGDTRTIKIANFGLMRTSYGSDYYKMLHRSWMPVRWMSKEAIEQGRFSEASDVWSFGVTLWEIWSFGRQPYEGASNQQVIELVANRHLLECPHNCPTNIYSLMVECWHENIERRPTFSEIRSRLQSWSLASPAHSILQQHNNRAGSHSGSSGAGRPPTHQRGYPSQKLHRRVEGASPLMKRHDANYAYSEDGDSD
kcat [4, 6]: <8.3e-06 s⁻¹ | kcat/Km [4, 6]: < 0.0005 M⁻¹ s⁻¹

B5: CAM-1 ICD (Caenorhabditis elegans; G599D) (protein)
chain: RAKKKSQKTRHQNAHCSSAPSVINSAANSAYYRKLNGTSTPIMGRVPPHVEMTSLLPSAQHLGPPPYPMDQHLQQARRFPSQEPIDDNSYKVFEITPSQLSVREKIGEDQFGVVHSGIYTSGLFAPEPMAVAVKKCRHDATNAERAQLEQEIRAVATFDHPNVIKLIGVCYMDNSLLAVFEYMVHGDLHELLKVRVPPADHDMGGITEANAEFLYIATQIALGMEYLASMSFVHRDLATRNCLVGDTRTIKIADFGLMRTSYGSDYYKMLHRSWMPVRWMSKEAIEQGRFSEASDVWSFGVTLWEIWSFGRQPYEGASNQQVIELVANRHLLECPHNCPTNIYSLMVECWHENIERRPTFSEIRSRLQSWSLASPAHSILQQHNNRAGSHSGSSGAGRPPTHQRGYPSQKLHRRVEGASPLMKRHDANYAYSEDGDSD
kcat [4, 6]: <8.3e-06 s⁻¹ | kcat/Km [4, 6]: < 0.0005 M⁻¹ s⁻¹

B6: ROR2 ICD (Homo sapiens) (protein)
chain: CRNKQKASASTPQRRQLMASPSQDMEMPLINQHKQAKLKEISLSAVRFMEELGEDRFGKVYKGHLFGPAPGEQTQAVAIKTLKDKAEGPLREEFRHEAMLRARLQHPNVVCLLGVVTKDQPLSMIFSYCSHGDLHEFLVMRSPHSDVGSTDDDRTVKSALEPPDFVHLVAQIAAGMEYLSSHHVVHKDLATRNVLVYDKLNVKISDLGLFREVYAADYYKLLGNSLLPIRWMAPEAIMYGKFSIDSDIWSYGVVLWEVFSYGLQPYCGYSNQDVVEMIRNRQVLPCPDDCPAWVYALMIECWNEFPSRRPRFKDIHSRLRAWGNLSNYNSSAQTSGASNTTQTSSLSTSPVSNVSNARYVGPKQKAPPFPQPQFIPMKGQIRPMVPPPQLYVPVNGYQPVPAYGAYLPNFYPVQIPMQMAPQQVPPQMVPKPSSHHSGSGSTSTGYVTTAPSNTSMADRAALLSEGADDTQNAPEDGAQSTVQEAEEEEEGSVPETELLGDCDTLQVDEAQVQLEA
kcat [5]: <8.3e-06 s⁻¹ | kcat/Km [5]: < 0.0005 M⁻¹ s⁻¹

B7: ROR2 ICD (Homo sapiens; D482G) (protein)
chain: CRNKQKASASTPQRRQLMASPSQDMEMPLINQHKQAKLKEISLSAVRFMEELGEGRFGKVYKGHLFGPAPGEQTQAVAIKTLKDKAEGPLREEFRHEAMLRARLQHPNVVCLLGVVTKDQPLSMIFSYCSHGDLHEFLVMRSPHSDVGSTDDDRTVKSALEPPDFVHLVAQIAAGMEYLSSHHVVHKDLATRNVLVYDKLNVKISDLGLFREVYAADYYKLLGNSLLPIRWMAPEAIMYGKFSIDSDIWSYGVVLWEVFSYGLQPYCGYSNQDVVEMIRNRQVLPCPDDCPAWVYALMIECWNEFPSRRPRFKDIHSRLRAWGNLSNYNSSAQTSGASNTTQTSSLSTSPVSNVSNARYVGPKQKAPPFPQPQFIPMKGQIRPMVPPPQLYVPVNGYQPVPAYGAYLPNFYPVQIPMQMAPQQVPPQMVPKPSSHHSGSGSTSTGYVTTAPSNTSMADRAALLSEGADDTQNAPEDGAQSTVQEAEEEEEGSVPETELLGDCDTLQVDEAQVQLEA
kcat [5]: <8.3e-06 s⁻¹ | kcat/Km [5]: < 0.0005 M⁻¹ s⁻¹

Source: article PMC4100928, “Evolutionary Divergence in the Catalytic Activity of the CAM-1, ROR1 and ROR2 Kinase Domains” (PLoS ONE, 2014)
